Numbered stars: 1 amine (or outer) side, 2 acyl side, 3 side chain; on linkers, the order of the positions; unused ones are H or OH. Bridge positions count the residues as written; N and C are the ends. Side chains are listed from the residue outwards. Ends that are not written are not given here. * marks the point of attachment. C20 diacid = O=C(O)CCCCCCCCCCCCCCCCCCC(=O)*; C18 diacid = O=C(O)CCCCCCCCCCCCCCCCC(=O)*; C16 diacid = O=C(O)CCCCCCCCCCCCCCC(=O)*; γGlu = O=C(O)[C@H](CCC(=O)[*:2])N[*:1]; C14 diacid = O=C(O)CCCCCCCCCCCCC(=O)*; AEEA = NCCOCCOCC(=O)O
T1: rat amylin receptor (rat calcitonin receptor + rat RAMP 3) (rat, UniProt P32214 25-516; Q9JJ73 23-147)
T1 construct: whole, on cells; Membranes of transiently transfected BHK tk'ts 13 cells (Assay VI); also called rAmylin-R; rat amylin 3(a) receptor
T1 sequence (looked up) 1: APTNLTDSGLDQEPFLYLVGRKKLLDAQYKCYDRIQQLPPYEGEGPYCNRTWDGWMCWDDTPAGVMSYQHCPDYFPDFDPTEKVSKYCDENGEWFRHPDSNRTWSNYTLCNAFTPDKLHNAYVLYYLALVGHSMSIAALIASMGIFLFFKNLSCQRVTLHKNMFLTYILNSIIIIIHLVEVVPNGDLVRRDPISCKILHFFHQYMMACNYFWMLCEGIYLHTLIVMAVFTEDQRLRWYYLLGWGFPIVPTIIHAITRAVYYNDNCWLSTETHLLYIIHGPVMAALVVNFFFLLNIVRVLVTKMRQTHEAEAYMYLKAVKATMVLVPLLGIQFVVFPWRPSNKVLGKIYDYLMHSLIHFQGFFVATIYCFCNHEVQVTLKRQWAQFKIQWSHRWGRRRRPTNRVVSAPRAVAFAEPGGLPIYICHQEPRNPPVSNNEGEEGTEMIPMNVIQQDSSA
T1 sequence (looked up) 2: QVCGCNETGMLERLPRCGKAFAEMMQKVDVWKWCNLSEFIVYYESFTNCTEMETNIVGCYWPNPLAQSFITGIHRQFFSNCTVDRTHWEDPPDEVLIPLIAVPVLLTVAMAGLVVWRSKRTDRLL

T2: rat calcitonin receptor (rat, UniProt P32214 25-516)
T2 construct: whole, on cells; Membranes of transiently transfected BHK tk'ts 13 cells (Assay VIII); also called rCTR
T2 sequence (looked up): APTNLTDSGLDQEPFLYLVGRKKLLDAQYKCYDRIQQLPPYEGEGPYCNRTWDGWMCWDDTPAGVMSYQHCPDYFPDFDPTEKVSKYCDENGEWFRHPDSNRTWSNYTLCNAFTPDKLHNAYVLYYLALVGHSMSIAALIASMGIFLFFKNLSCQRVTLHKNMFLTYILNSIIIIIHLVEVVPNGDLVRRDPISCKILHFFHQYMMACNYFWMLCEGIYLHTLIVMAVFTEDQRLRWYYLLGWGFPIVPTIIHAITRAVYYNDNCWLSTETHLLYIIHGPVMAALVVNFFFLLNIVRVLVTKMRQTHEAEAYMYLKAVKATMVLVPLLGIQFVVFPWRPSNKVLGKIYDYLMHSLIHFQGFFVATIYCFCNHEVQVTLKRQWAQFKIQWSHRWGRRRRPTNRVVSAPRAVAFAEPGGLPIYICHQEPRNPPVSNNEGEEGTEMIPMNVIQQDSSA

T3: human calcitonin receptor (human, UniProt P30988 25-474)
T3 construct: whole, on cells; Membranes of a stably transfected BHK cell line (Assay VII); also called hCTR; hCT
T3 sequence (looked up): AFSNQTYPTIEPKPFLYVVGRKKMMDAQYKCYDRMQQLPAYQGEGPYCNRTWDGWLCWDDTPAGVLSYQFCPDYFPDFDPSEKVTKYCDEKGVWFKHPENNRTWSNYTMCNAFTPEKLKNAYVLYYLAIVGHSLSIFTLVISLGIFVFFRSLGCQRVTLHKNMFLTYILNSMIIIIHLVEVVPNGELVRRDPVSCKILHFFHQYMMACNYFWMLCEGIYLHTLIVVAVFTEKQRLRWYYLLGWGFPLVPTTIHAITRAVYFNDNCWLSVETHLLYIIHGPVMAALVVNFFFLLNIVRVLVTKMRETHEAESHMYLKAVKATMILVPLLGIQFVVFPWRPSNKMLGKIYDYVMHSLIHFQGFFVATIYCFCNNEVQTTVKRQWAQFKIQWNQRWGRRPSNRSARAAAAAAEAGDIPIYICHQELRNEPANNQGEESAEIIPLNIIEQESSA


Key:
[1] = target: T1, rat amylin receptor (rat calcitonin …); experiment: SPA competition with 125I-rat amylin, membranes of BHK cells with rat calcitonin receptor + rat RAMP3 (Assay VI)
[2] = target: T2, rat calcitonin receptor; experiment: ratio IC50 rat calcitonin receptor / IC50 rat amylin receptor (reference)
[3] = target: T2, rat calcitonin receptor; experiment: SPA competition with 125I-calcitonin, membranes of BHK cells with rat calcitonin receptor (Assay VIII)
[4] = target: T3, human calcitonin receptor; experiment: ratio IC50 human calcitonin receptor / IC50 human amylin receptor (reference)
Method in brief: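 Competition binding by SPA uses membrane preparations (35 ng/μL final) in pH 7.4 Hepes buffer with 1 mM CaCl2 and 5 mM MgCl₂. Incubation lasts 120 min at 25° C, and IC₅₀ comes from one-site fitting.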

IC50 [1] [nM] | Ratio rCT/rAmylin binding [2] | IC50 [3] [nM] | Ratio hCT/hAmylin binding [4] | Binder
5.05 | 94.3 | 477 | 120 | K([AEEA-γGlu-C20 diacid])CNTATCATQRLAHFLRHSSPNFGAIPSSTNVGRNTY-NH2 (disulfide 2-7; N-terminus assumed; SMILES CC[C@H](C)[C@H](NC(=O)[C@H](C)NC(=O)CNC(=O)[C@H](Cc1ccccc1)NC(=O)[C@H](CC(N)=O)NC(=O)[C@@H]1CCCN1C(=O)[C@H](CO)NC(=O)[C@H](CO)NC(=O)[C@H](Cc1c[nH]cn1)NC(=O)[C@H](CCCNC(=N)N)NC(=O)[C@H](CC(C)C)NC(=O)[C@H](Cc1ccccc1)NC(=O)[C@H](Cc1c[nH]cn1)NC(=O)[C@H](C)NC(=O)[C@H](CC(C)C)NC(=O)[C@H](CCCNC(=N)N)NC(=O)[C@H](CCC(N)=O)NC(=O)[C@@H](NC(=O)[C@H](C)NC(=O)[C@@H]1CSSC[C@H](NC(=O)[C@@H](N)CCCCNC(=O)COCCOCCNC(=O)CC[C@H](NC(=O)CCCCCCCCCCCCCCCCCCC(=O)O)C(=O)O)C(=O)N[C@@H](CC(N)=O)C(=O)N[C@@H]([C@@H](C)O)C(=O)N[C@@H](C)C(=O)N[C@@H]([C@@H](C)O)C(=O)N1)[C@@H](C)O)C(=O)N1CCC[C@H]1C(=O)N[C@@H](CO)C(=O)N[C@@H](CO)C(=O)N[C@H](C(=O)N[C@@H](CC(N)=O)C(=O)N[C@H](C(=O)NCC(=O)N[C@@H](CCCNC(=N)N)C(=O)N[C@@H](CC(N)=O)C(=O)N[C@H](C(=O)N[C@@H](Cc1ccc(O)cc1)C(N)=O)[C@@H](C)O)C(C)C)[C@@H](C)O, also called compound 84)
1.24 | 327 | 404 | 18.5 | K([γGlu-C16 diacid])CNTATCATQRLANFLRHSSPNFGAIPSSTNVGHNTY-NH2 (disulfide 2-7; N-terminus assumed; SMILES CC[C@H](C)[C@H](NC(=O)[C@H](C)NC(=O)CNC(=O)[C@H](Cc1ccccc1)NC(=O)[C@H](CC(N)=O)NC(=O)[C@@H]1CCCN1C(=O)[C@H](CO)NC(=O)[C@H](CO)NC(=O)[C@H](Cc1c[nH]cn1)NC(=O)[C@H](CCCNC(=N)N)NC(=O)[C@H](CC(C)C)NC(=O)[C@H](Cc1ccccc1)NC(=O)[C@H](CC(N)=O)NC(=O)[C@H](C)NC(=O)[C@H](CC(C)C)NC(=O)[C@H](CCCNC(=N)N)NC(=O)[C@H](CCC(N)=O)NC(=O)[C@@H](NC(=O)[C@H](C)NC(=O)[C@@H]1CSSC[C@H](NC(=O)[C@@H](N)CCCCNC(=O)CC[C@H](NC(=O)CCCCCCCCCCCCCCC(=O)O)C(=O)O)C(=O)N[C@@H](CC(N)=O)C(=O)N[C@@H]([C@@H](C)O)C(=O)N[C@@H](C)C(=O)N[C@@H]([C@@H](C)O)C(=O)N1)[C@@H](C)O)C(=O)N1CCC[C@H]1C(=O)N[C@@H](CO)C(=O)N[C@@H](CO)C(=O)N[C@H](C(=O)N[C@@H](CC(N)=O)C(=O)N[C@H](C(=O)NCC(=O)N[C@@H](Cc1c[nH]cn1)C(=O)N[C@@H](CC(N)=O)C(=O)N[C@H](C(=O)N[C@@H](Cc1ccc(O)cc1)C(N)=O)[C@@H](C)O)C(C)C)[C@@H](C)O) [N^ε1-[(4S)-4-carboxy-4-(15-carboxypentadecanoylamino)butanoyl]-[Arg17,Pro21,Pro27,His34]-h-amylin]

More lines, now with the values behind:

Binder | IC50 [1] [nM] | Ratio rCT/rAmylin binding [2] | IC50 [3] [nM] | Ratio hCT/hAmylin binding [4]
K([γGlu-C14 diacid])CNTATCATQRLANFLRHSSPNFGAIPSSTNVGHNTY-NH2 (disulfide 2-7; N-terminus assumed; SMILES CC[C@H](C)[C@H](NC(=O)[C@H](C)NC(=O)CNC(=O)[C@H](Cc1ccccc1)NC(=O)[C@H](CC(N)=O)NC(=O)[C@@H]1CCCN1C(=O)[C@H](CO)NC(=O)[C@H](CO)NC(=O)[C@H](Cc1c[nH]cn1)NC(=O)[C@H](CCCNC(=N)N)NC(=O)[C@H](CC(C)C)NC(=O)[C@H](Cc1ccccc1)NC(=O)[C@H](CC(N)=O)NC(=O)[C@H](C)NC(=O)[C@H](CC(C)C)NC(=O)[C@H](CCCNC(=N)N)NC(=O)[C@H](CCC(N)=O)NC(=O)[C@@H](NC(=O)[C@H](C)NC(=O)[C@@H]1CSSC[C@H](NC(=O)[C@@H](N)CCCCNC(=O)CC[C@H](NC(=O)CCCCCCCCCCCCC(=O)O)C(=O)O)C(=O)N[C@@H](CC(N)=O)C(=O)N[C@@H]([C@@H](C)O)C(=O)N[C@@H](C)C(=O)N[C@@H]([C@@H](C)O)C(=O)N1)[C@@H](C)O)C(=O)N1CCC[C@H]1C(=O)N[C@@H](CO)C(=O)N[C@@H](CO)C(=O)N[C@H](C(=O)N[C@@H](CC(N)=O)C(=O)N[C@H](C(=O)NCC(=O)N[C@@H](Cc1c[nH]cn1)C(=O)N[C@@H](CC(N)=O)C(=O)N[C@H](C(=O)N[C@@H](Cc1ccc(O)cc1)C(N)=O)[C@@H](C)O)C(C)C)[C@@H](C)O) [N^ε1-[(4S)-4-carboxy-4-(13-carboxytridecanoylamino)butanoyl]-[Arg17,Pro21,Pro27,His34]-h-amylin] | 2.52 | 280 | 707 | 23.5
K([γGlu-C20 diacid])CNTATCATQRLAAFLRHSSPNFGAIPSSTNVGHNTY-NH2 (disulfide 2-7; N-terminus assumed; SMILES CC[C@H](C)[C@H](NC(=O)[C@H](C)NC(=O)CNC(=O)[C@H](Cc1ccccc1)NC(=O)[C@H](CC(N)=O)NC(=O)[C@@H]1CCCN1C(=O)[C@H](CO)NC(=O)[C@H](CO)NC(=O)[C@H](Cc1c[nH]cn1)NC(=O)[C@H](CCCNC(=N)N)NC(=O)[C@H](CC(C)C)NC(=O)[C@H](Cc1ccccc1)NC(=O)[C@H](C)NC(=O)[C@H](C)NC(=O)[C@H](CC(C)C)NC(=O)[C@H](CCCNC(=N)N)NC(=O)[C@H](CCC(N)=O)NC(=O)[C@@H](NC(=O)[C@H](C)NC(=O)[C@@H]1CSSC[C@H](NC(=O)[C@@H](N)CCCCNC(=O)CC[C@H](NC(=O)CCCCCCCCCCCCCCCCCCC(=O)O)C(=O)O)C(=O)N[C@@H](CC(N)=O)C(=O)N[C@@H]([C@@H](C)O)C(=O)N[C@@H](C)C(=O)N[C@@H]([C@@H](C)O)C(=O)N1)[C@@H](C)O)C(=O)N1CCC[C@H]1C(=O)N[C@@H](CO)C(=O)N[C@@H](CO)C(=O)N[C@H](C(=O)N[C@@H](CC(N)=O)C(=O)N[C@H](C(=O)NCC(=O)N[C@@H](Cc1c[nH]cn1)C(=O)N[C@@H](CC(N)=O)C(=O)N[C@H](C(=O)N[C@@H](Cc1ccc(O)cc1)C(N)=O)[C@@H](C)O)C(C)C)[C@@H](C)O, also called compound 93) | 1.58 | 83.2 | 131 | 101
K([γGlu-C18 diacid])CNTATCATQRLANFLRHSSPNFGAIPSSTNVGHNTY-NH2 (disulfide 2-7; N-terminus assumed; SMILES CC[C@H](C)[C@H](NC(=O)[C@H](C)NC(=O)CNC(=O)[C@H](Cc1ccccc1)NC(=O)[C@H](CC(N)=O)NC(=O)[C@@H]1CCCN1C(=O)[C@H](CO)NC(=O)[C@H](CO)NC(=O)[C@H](Cc1c[nH]cn1)NC(=O)[C@H](CCCNC(=N)N)NC(=O)[C@H](CC(C)C)NC(=O)[C@H](Cc1ccccc1)NC(=O)[C@H](CC(N)=O)NC(=O)[C@H](C)NC(=O)[C@H](CC(C)C)NC(=O)[C@H](CCCNC(=N)N)NC(=O)[C@H](CCC(N)=O)NC(=O)[C@@H](NC(=O)[C@H](C)NC(=O)[C@@H]1CSSC[C@H](NC(=O)[C@@H](N)CCCCNC(=O)CC[C@H](NC(=O)CCCCCCCCCCCCCCCCC(=O)O)C(=O)O)C(=O)N[C@@H](CC(N)=O)C(=O)N[C@@H]([C@@H](C)O)C(=O)N[C@@H](C)C(=O)N[C@@H]([C@@H](C)O)C(=O)N1)[C@@H](C)O)C(=O)N1CCC[C@H]1C(=O)N[C@@H](CO)C(=O)N[C@@H](CO)C(=O)N[C@H](C(=O)N[C@@H](CC(N)=O)C(=O)N[C@H](C(=O)NCC(=O)N[C@@H](Cc1c[nH]cn1)C(=O)N[C@@H](CC(N)=O)C(=O)N[C@H](C(=O)N[C@@H](Cc1ccc(O)cc1)C(N)=O)[C@@H](C)O)C(C)C)[C@@H](C)O) [N^ε1-[(4S)-4-carboxy-4-(17-carboxyheptadecanoylamino)butanoyl]-[Arg17,Pro21,Pro27,His34]-h-amylin] | 1.17 | 40.3 | 47 | 59.4
